Laboratory results as given in patent US20150231240A1, “ANTI-C16ORF54 ANTIBODIES AND METHODS OF USE THEREOF” (priority 2012, published 2015).

Legend:
human C16orf54 [1] = target: T1, human C16orf54 (human, UniProt Q6UWD8 1-224); experiment: flow cytometry, CFPAC-1 pancreatic cancer cells (endogenous C16orf54), 3 repeats
T1 construct: also called huC16orf54; hC16orf54
T1 sequence: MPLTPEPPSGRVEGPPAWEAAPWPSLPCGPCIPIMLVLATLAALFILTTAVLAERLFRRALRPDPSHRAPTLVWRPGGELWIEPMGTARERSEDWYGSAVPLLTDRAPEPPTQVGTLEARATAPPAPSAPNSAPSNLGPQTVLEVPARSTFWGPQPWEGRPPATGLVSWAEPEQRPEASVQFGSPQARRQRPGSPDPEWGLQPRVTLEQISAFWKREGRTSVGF

[2] = target: T2, N-terminal 32 amino acids of huC16orf54 coupled to biotin (human, biotin at the C-terminus); experiment: biolayer interferometry (OctetQK384), hybridoma supernatant on streptavidin sensors coated with the biotinylated peptide
T2 construct: also called 32 amino acid N-terminal extracellular domain
T2 peptide: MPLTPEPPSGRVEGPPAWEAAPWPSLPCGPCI
Experimental: Eight anti-huC16orf54 monoclonal antibodies were further screened for binding and subsequent off-rate analysis using the OctetQK384® sytem (ForteBio). Hybridoma supernatants were screened for association to and dissocation from streptavidin sensors coated with the N-terminal 32 amino acids of huC16orf54 coupled to biotin, and the calculated offrates (kdis) are shown in Table 31. Cloned hybridomas with […] off-rates were carried forward for antibody purification.

human C16orf54 [3] = target: T1, human C16orf54; experiment: flow cytometry, KARPAS-1106P lymphoma cells (endogenous C16orf54), 1 repeat
human C16orf54 [4] = target: T1, human C16orf54; experiment: flow cytometry titration, KG1 cells (endogenous human C16orf54)
[5] = target: T3, Human C16-ECD peptide (aa1-31) (human); experiment: column head 'Full kinetics (nM)' in the table of the C16orf54 peptide binding assays; method and antigen not described; 4 runs
T3 construct: Coated on plates in the peptide ELISA; also called human extracellular domain peptide
T3 peptide: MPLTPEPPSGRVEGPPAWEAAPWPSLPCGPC

human C16orf54 [6] = target: T1, human C16orf54; experiment: flow cytometry, 10 ug/ml antibody, D42M1-huC16orf54 cells
Procedure, shortened: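 Sarcoma cells transfected with human or cyno C16orf54 were Fc-blocked, stained with antibody for 1 h at 4° C., then PE anti-mouse IgG Fcγ secondary 30 min at 4° C., with TO-PRO-3 viability dye. Value is live-cell PE median fluorescence divided by that of IgG isotype control.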

human C16orf54 [7] = target: T1, human C16orf54; experiment: flow cytometry, Granta-519 lymphoma cells (endogenous C16orf54), 1 repeat
[8] = target: T4, cynomolgus monkey C16orf54 (cynomolgus monkey (Macaca fascicularis), UniProt Q6UWD8 1-224 (human entry)); experiment: flow cytometry titration, F279-cyno-C16orf54 cells
T4 construct: also called cyno C16orf54; cyno-C16orf54
T4 chain: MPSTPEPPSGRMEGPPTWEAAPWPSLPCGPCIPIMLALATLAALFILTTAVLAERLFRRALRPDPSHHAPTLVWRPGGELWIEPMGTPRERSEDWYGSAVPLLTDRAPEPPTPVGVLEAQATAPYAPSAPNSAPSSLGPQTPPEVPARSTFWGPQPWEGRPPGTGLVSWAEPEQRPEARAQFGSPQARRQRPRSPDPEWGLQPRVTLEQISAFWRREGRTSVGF
Experimental: Anti-C16orf54 antibodies which bound to human C16orf54 were tested for their binding to cells expressing human C16orf54 and cells expressing cyno C16orf54. […] Median fluorescence intensities for each primary antibody concentration were used to derive a flow EC50/Kd using the one site-specific binding with Hill slope model in Prism (GraphPad Prism® Software). Results are shown as flow EC50 in Table 35.

human C16orf54 [9] = target: T1, human C16orf54; experiment: flow cytometry, HEL92.1.7 leukemia cells (endogenous C16orf54), 3 repeats
human C16orf54 [10] = target: T1, human C16orf54; experiment: flow cytometry, OCI-AML3 leukemia cells (endogenous C16orf54), 3 repeats
[11] = target: T5, N-terminal 32 amino acids of huC16orf54 (Homo sapiens, UniProt Q6UWD8); experiment: Affinity measurements of purified antibodies on OctetQK384; type: binding; conditions: purified antibody, streptavidin sensors coated with N-terminal 32 amino acids of huC16orf54 coupled to biotin
T5 sequence (Q6UWD8 1-32 limits assumed): T2 peptide
Experimental: Affinity measurements of purified anti-huC16orf54 antibodies were carried out on the OctetQK384® sytem (ForteBio). After coating streptavidin sensors with the N-terminal 32 amino acids of huC16orf54 coupled to biotin at the C-terminus, association and dissociation of purified anti-huC16orf54 antibodies was monitored. KD values were derived using ForteBio's software.

B1: R29-7-1C (antibody, V domains shown)
VH: DVQLQESGPGLVKPSQSLSLTCTVTGYSITSDYAWNWIRQFPGNKLEWMGYISYSGSIRYNPSLKSRISITRDTSKNQFFLQLNSVTTEDTATYYCAREKYDNYYYAMDYWGQGTSVTVSS
VL: DIVMSQSPSSLAVSVGEKVTLSCKSSQNLLYSTNQKNYLAWYQQKPGQSPKLLIYWASTRESGVPDRFTGSGSGTDFTLTISSVKAEDLAVYYCQQYYSYRTFGGGTKLEIK
notes: Murine monoclonal IgG2a from a hybridoma
Average MFI fold change relative to isotype control (human C16orf54 [1]): 1.6 fold
koff [2]: 0.0102 s⁻¹
Average MFI fold change relative to isotype control (human C16orf54 [3]): 10.5 fold
EC50 (human C16orf54 [4]): 0.3 nM
Kd [5]: 0.77 nM
Median fold change relative to IgG control (human C16orf54 [6]): 205 fold
Average MFI fold change relative to isotype control (human C16orf54 [7]): 3.8 fold
EC50 [8]: 2.7 nM
Average MFI fold change relative to isotype control (human C16orf54 [9]): 5 fold
Average MFI fold change relative to isotype control (human C16orf54 [10]): 3 fold

B2: R29-7-1C: murine anti-C16orf54 monoclonal antibody, IgG2a; VH SEQ ID NO: 8, VL SEQ ID NO: 10 (antibody, V domains shown)
VH: MRVLILLWLFTAFPGILSDVQLQESGPGLVKPSQSLSLTCTVTGYSITSDYAWNWIRQFPGNKLEWMGYISYSGSIRYNPSLKSRISITRDTSKNQFFLQLNSVTTEDTATYYCAREKYDNYYYAMDYWGQGTSVTVSS
VL: MDSQAQVLMLLLLWVSGTCGDIVMSQSPSSLAVSVGEKVTLSCKSSQNLLYSTNQKNYLAWYQQKPGQSPKLLIYWASTRESGVPDRFTGSGSGTDFTLTISSVKAEDLAVYYCQQYYSYRTFGGGTKLEIK
modifications: R29-7-1C heavy chain variable region; R29-7-1C light chain variable region
kdis [11]: 7.95e-05 ± 8.9e-06 s⁻¹
kon [11]: 68100 ± 6200 M⁻¹ s⁻¹
